Results: the nanobody polyreactivity screen of Harvey et al. (2022)

Assay: yeast display, Sf9 membrane polyspecificity reagent, FACS + sequencing; frameworks hold sequencing errors
In short: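 Galactose induction of a Saccharomyces cerevisiae BJ5465 synthetic nanobody display library ran 36–48 hours. The cells were then stained for 1 hour at 4 °C with 10% biotinylated, detergent-solubilized Sf9 membrane reagent, pulled down on streptavidin microbeads and FACS-sorted into low and high (top ~1%) gates on expression and reagent-binding fluorescence. Labels for polyreactivity follow the gate of origin.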

Sequence	polyreactivity (PSR sort gate)
QVQLVESVGGLAQSRGSLRLSCAASGRTFFPNAMGWYRQAPGKERELVAAITNGDSTHYADSVKRRFTISRDNAKNTVYLQMNSLKPEDTADYYCAAEDHYEGYGGYYWGQVTQVTVSS	low polyreactivity
QVQLVESGGGLVQAGGSLRLSCAASGSIFRPNTMGWYRQAPGKERELVAAIRYRGGGTYYADSVKGRFTISRDNAKNTVYLQMNSLKPEDTAVYFCNAPRRNWSYDYWGQGTQVTVSS	high polyreactivity
QVQLGESGGGLVLAGGSLRLSCAASGSIFTHYAIGWYRQAPGKERELVAAISWSGGSTYYADSVKGRFTISRDNAQNTVYLQMNSLKPEDTAVYYCAALYYSRLSVSGEYDYWGQGTQVTVSS	high polyreactivity
QVQLVESGGGLVQAGGSLRLSCAASGLTFWVYTMGWYRQAPGKERELVAAITRGGSTTYADSVKGRFTISRDNAKNSVYLQMNSLQPEDTAVYYCNAVYKYSVVYKLDYWGQGTQVTVSS	high polyreactivity
QVQLVESGGGLVQAGGSLRLSCAASGSSFGVNAMGWYRQAPGKERELVADISVRTDSTYYADSVKGRFTISRDNAKNTVYLQMNSLKPEDTAVYYCAAEVPYYYPGFYSYYDDSDYWGQGTQVTVSS	low polyreactivity
QVQIVESGGGLVQAGGSLRLSCAASGSILLYYPIGWYRQAPAKEREWVARITGSGSRTYYADSVKGRFTISRDNAKNTVFVQMHSVKPEDNAVYYCAADFSGHGWESVVGYGYWGQGTQVTVSS	low polyreactivity
QVQLGDSGGGLVQAGGSLRLSCAASGSIFSKYAMGWSRKAPGKERELVATISSSVGSTYYADSVKGRFTISRDNAKNSVYLQMNSLKPEDTAVYYCAARPDYEYGTHYRGGYWGQGTQVTVSS	low polyreactivity
QVQLVESGGGLVQAGGSLRLSCAASGFIFGVYAMGWYRQAPGKERELVAAITSSGTSTYYADSVKGRFTISRDNAKNTVYLQMNSLKPEDTAVYYCNKSGYIYHRKLWTPYYYWGQGTQGTVSS	low polyreactivity
QVQLVESGGGLVQAGGSLRLSCAASGRIFARYAMGWYRQAPGKERELVAAITKSVGSTYYADSVKGRFTNSRDNAKNTVYLQMNSLKPEDTAVYYCNAVARGYGYDYWGQGTQVTVSS	high polyreactivity
QVQLVESGGGLDQAGGSLRLSCAASGSIFWYNTMGWYRQAPGKERELVAAITFSGGSTYYADSVKGRFTISRDNAKNTVYLQMNSLKPEDTAVYYCAAVFYSAVGYFYWGQGTQVTVSS	low polyreactivity
QVQLVDSGGGLVQAGGSLRLSCAASGIIIKLYAMGWYRQAPGKEREFVATITKTGGRTYYADSVKGRFTISRDNAKNTVYLQMNSLKPEDTAVYYCAARRVNGKMYYWGQGTQVTVSS	high polyreactivity
QVQLVESGGGLVQAGGSLRLSCAASGNIFDRYAMGWYRQAPGKERELVAGITWSGGSTYYADSVKGRFTISRDNAKNTVYLQMNSLKPEDTAVYYCGEANYYWGHGTQVTVSS	low polyreactivity
QVQLVESGGCLVQAVGSLRLSCAASAFTFTQYGRGWYRQASGKEREFVATIRFSGDTTYYADSVKRRFTITRDHAKNTAYLQMNRLKPEDPAVYYCNADNRAFFVYPGSNRYDSWGQGTQVTVSS	low polyreactivity
QVQLVESGGGLVQAGGSLRLICAASGRTFARYTMGWYRQARGKERELVASITRGGSTYYADSVKGRFTISRDNAKITVYLQMYSLKPEDSAVYYCNAVYIVGGDWGQGTQVTVSS	high polyreactivity
QVQLVESGGGLVQAGGSLRLTCAASGRIFQRYAMGWYRQAPGKERELVAGITSSGGSTYYADSVKGRFTISRDNAKNTVYLQMNSLKPEDTAVYYCNAGGELRYYGYRAGGTTRSYDYWGQGTQVTVSS	low polyreactivity
QVQLVESGGGLVQAGGSLRLSCAASGRIFKSYVMGWYRQAPGKERELVAAITRTGGSTYYADSVKGRFTISRDNAKYTVYLQMNSLTPEDTAVYYCNARYSWPRATWYDYWGQGTQVTVSS	high polyreactivity

Sequence	polyreactivity (PSR sort gate)
QVQLVESGGGLVQAGGSLRLSCAASGSIFVNNAMGWYRQAPGKERELVAAISSRSSRTFYADSVKGRFTISRDNAKNTVYLQMNSLKPDDNAVFYCAVNNRAPDGEYWGLGTQVTVSS	high polyreactivity
QVQLVESGGGLVQAGGSLRLSCSASGSIFVRNFMGGYRQSPGKERELVAGISWNGGSTFYADSVKGRFTISRDNAKNTVYLQMNSLKPEDTAVYYCAARGRHSVYYSFPYYYWGQGTQVTVSS	low polyreactivity
QVQLVESGGGLVQAGGSLRLSCAASGSTFVSYAMGWYRQAPGKERELVAAISISDSSTYYADSVKGRFSISRDNAKNTVYLQMNSLKPEDTAVYYCNRYDFWGQGTQVTVSS	low polyreactivity
QVQLVESGGGLVQAGGSLRLSCAASGSIFGYYAMGWYRQAPGKERELVARIRSTGSTNYADSVKGRFTISRDNAKNTVYLQMNSLKPEDTAVFYCNKLAHRKGGYWGQGTQVTVSS	high polyreactivity
QVQLVESGGGLVQAGGSLRLSCAASGSTFQINAMGWYRQATGTERELGAAIDGGGDTYYADSVKGRFTISRDNAKNTFYLQMNSLKPEDTAVYYCNARSWARKSNGGSRIRYDYWGQGTQVTVSS	low polyreactivity
QVQLVESRGGLVQAGGSLRLSCAASGRIFGYYAMGWYRQAPGKERELVATIRGGGSTNYADSVKGRFTISRDNAKNTVYLQMNSLKPEDTAVYYCAKPGAKWRGFDYWGQGTQVTVSS	low polyreactivity
QVQLVESVGGLVQAGGSLRLSCAASGSTLDGNPMGWYRQAPGKERELVAAISRSGTSTYYADSVKGRFTISRDNAKNTVYLQMNSLKPEDTAVYYCNKVGYIAFDYWGQGTQVTVSS	low polyreactivity
QVQLVESGGGLVQAGGSLSISCAASGLSFSVNAMGWYRPAPGKEREFVAAISSSGGRTYYADSVKGRFTISRDHAKNTVYLQMNSLKPEYTAGYYCATAQGSRVDYWGQGTQVTLSS	high polyreactivity
QVQHVESGGGLVQAGGSLRLSCAASGFIFYKYAMGWYRQAPGKERELVAAISKRGGSTYYADSVKGRFTISRDNAKNTVYLQMNSLKPEDTAVYYCATDGGNSATVRYVASDYWGQGTQVTVSS	high polyreactivity
QVQLVESVGGLVQAGGSLRLSCAASGFTFFHYAMGWYRQAPGKERELVAAINTRGSRTYYADSVKGRFTISRDNAKNTVYLQMNSLKPEDTAVYYCAADSVQVYAWQYYYWGQGTQVTVSS	high polyreactivity
QVQLVESGGGLVQAGGSLRLSCAASGRIFVSNVMGWYRQAPGKERELVATITWSDGSTYYADSVKGRFTISRDNAKNTVYLQMNSLKPEDTAVYYCNVDQYTYVDLYWEYYFWGQGTQVTVSS	low polyreactivity
QVQLVESGGGLVQAGGSLRLTCAASGSIFRYYAMGWYRQAPGKERELVATISSGGRTYYADSVKGRFTISRDNAKNTVYLQMNSLKPEDTAVYYCAAVRLTWTAKYNYWGQGTQVTVSS	high polyreactivity
QVQLVESGGGLVQAGGSLRLSCAASGFIFDYYAMGWYRQAPGKERELVAAITRDGGGTYYADSVKGRFTISRDNEKNSVYLQMNSLKPEDTAVYYCAAETYWYYRANYDYWGQGTQVTVSS	high polyreactivity
QVQLVESGGGLVQAGGSLRLSCAASGFTFSHYAMGLSRQAPGKERELVAAITWSGGSTYYADSVKGRFTISRDNAKNTVYLQMKSLKPEDTAVYYCIALVIARNIEMDYWGQGTQVTVSS	high polyreactivity
QVQLVESGGGLVQAGGSLRLSCAASGRIFVKYAMGWYRQATGKERELVAAISKSGGSTYYADSVKGRFTISRDNAKNTVYLQMNSLKPEDTAVYYCATRSRDQYSVSYRLDYWGQGTQVTVSW	low polyreactivity
QVQLVESGGGLVQAGGSLRLSCAASGRTFAGYAMGWYRQAPGKERELVAGIRRSGDSTYYADSVKGRFTISRDNAKNTVYLQMNSLKPEDTAVYYCAAAPISKYGPYRGTGYRMGYWGQGTQVTVSS	high polyreactivity
